Experimental data as given in article PMC9443943.

Legend:
[1] = sucrose gradient sEV fractions from SNU449, Strep immunoblot; conditions: glycan lost; control: TM4SF5-WT
[2] = immunoblot of sEVs from transfected Huh7 cells; conditions: glycan lost; control: TM4SF5-Strep WT

B1: Transmembrane 4 L six family member 5 (TM4SF5): N138A/N155Q, Gly− (protein)
parent chain: MCTGKCARCVGLSLITLCLVCIVANALLLVPNGETSWTNTNHLSLQVWLMGGFIGGGLMVLCPGIAAVRAGGKGCCGAGCCGNRCRMLRSVFSSAFGVLGAIYCLSVSGAGLRNGPRCLMNGEWGYHFEDTAGAYLLNRTLWDRCEAPPRVVPWNVTLFSLLVAASCLEIVLCGIQLVNATIGVFCGDCRKKQDTPH
- localisation_or_trafficking [1]: abolishes
- localisation_or_trafficking [2]: abolishes

B2: Transmembrane 4 L six family member 5 (TM4SF5): N138A (protein)
parent chain: B1 parent chain
- localisation_or_trafficking [2]: decreases

B3: Transmembrane 4 L six family member 5 (TM4SF5): N155Q (protein)
parent chain: B1 parent chain
- localisation_or_trafficking [2]: no change
